Assay results reported in the supplement of paper PMC6757056.
± gives the standard deviation of the averaged measurements.

B1: library; a variant is named by its letters at N, in order (parent)
chain: GCUGUCACCGAGAAACUGUGAAGUAUAUCUUAAACCUGGGCACUUAAAAGAUAUAUGGAGUUAGUAGUGCAACCUGCUCGGUCUGAUGAGUCCNNNNNNGGACGAAACAGC

Key:
[1] = variants of: B1; test: normalized RNA/DNA level without ligand (relative to sTRSVctl = 100) (log10 (% of sTRSVctl)); HEK293T; ligand: cyclic di-GMP (c-di-GMP-II aptamer); higher = less ribozyme self-cleavage, higher mRNA level; settings: reporter: mCherry (pCS4076), ligand present: no
Method in brief: (§1)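 Total RNA, extracted with EDTA 72 h after HEK293T cells were transfected with 4 µg per 6-well well of reporter-linked ribozyme switch library plasmids, was reverse-transcribed, amplified, barcoded and sequenced. Ligand, if used, was added 1 h before transfection. RNA level was derived from RNA reads divided by DNA reads and normalized to a spiked-in non-cleaving sequence or to the top sequences. This was multiplied by 100 and log10-transformed, with the top set of 25 sequences and a ≥100 DNA read minimum.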

[2] = variants of: B1; test: normalized RNA/DNA level with ligand (relative to sTRSVctl = 100) (log10 (% of sTRSVctl)); HEK293T; ligand: cyclic di-GMP (c-di-GMP-II aptamer); ligand concentration (+) RNA-Seq: 1 mM; higher = less ribozyme self-cleavage, higher mRNA level; settings: reporter: mCherry (pCS4076), ligand present: yes
Method in brief: as §1

Row | Variant | normalized RNA/DNA level without ligand (log10) [1] | normalized RNA/DNA level with ligand (log10) [2]
1 | UUUCCU | 1.812 ± 0.016 | 1.92 ± 0.1
2 | GAAGUG | 1.732 ± 0.0044 | 1.81 ± 0.095
3 | CGGAGU | 1.63 ± 0.03 | 1.8 ± 0.1
4 | ACUCAC | 1.699 ± 0.0095 | 1.81 ± 0.092
5 | CGUUGU | 1.76 ± 0.018 | 1.86 ± 0.1
6 | AAAGCG | 1.689 ± 0.0061 | 1.78 ± 0.14
7 | CCGGCG | 1.69 ± 0.023 | 1.77 ± 0.05
8 | UAACCC | 1.77 ± 0.021 | 1.9 ± 0.08
9 | CUUUAG | 1.73 ± 0.095 | 1.84 ± 0.19
10 | GUUGGG | 1.6 ± 0.1 | 1.76 ± 0.065
11 | CCCAGG | 1.77 ± 0.025 | 1.89 ± 0.077
12 | GAGGCA | 1.81 ± 0.039 | 1.86 ± 0.089
13 | GGUCUU | 1.64 ± 0.039 | 1.79 ± 0.13
14 | UUAGGU | 1.7 ± 0.042 | 1.86 ± 0.1
15 | CAAGUG | 1.68 ± 0.045 | 1.84 ± 0.12
16 | CUGGGC | 1.733 ± 0.0023 | 1.88 ± 0.09
17 | GAUCUU | 1.673 ± 0.0037 | 1.8 ± 0.091
18 | CCGCAU | 1.6 ± 0.035 | 1.77 ± 0.096
19 | AGGGAC | 1.55 ± 0.12 | 1.7 ± 0.16
20 | CUCGGC | 1.797 ± 0.0073 | 1.9 ± 0.088
21 | UUAUCU | 1.704 ± 0.0044 | 1.85 ± 0.083
22 | GUUUCG | 1.71 ± 0.051 | 1.85 ± 0.099
23 | CUCCUG | 1.78 ± 0.065 | 1.85 ± 0.13
24 | AGCCCA | 1.84 ± 0.046 | 1.92 ± 0.11

Row | Variant | normalized RNA/DNA level without ligand (log10) [1] | normalized RNA/DNA level with ligand (log10) [2]
25 | ACAGCC | 1.66 ± 0.027 | 1.84 ± 0.1
26 | UAGAAG | 1.61 ± 0.027 | 1.8 ± 0.11
27 | AUCUCU | 1.669 ± 0.0069 | 1.86 ± 0.042
28 | GUCGUA | 1.63 ± 0.073 | 1.78 ± 0.095
29 | CACGGU | 1.685 ± 0.015 | 1.84 ± 0.064
30 | CACGGG | 1.63 ± 0.04 | 1.8 ± 0.06
31 | UUAUUU | 1.75 ± 0.06 | 1.86 ± 0.17
32 | CCAAUU | 1.58 ± 0.06 | 1.72 ± 0.086
33 | AUUGGC | 1.67 ± 0.017 | 1.83 ± 0.076
34 | UCUUGG | 1.84 ± 0.039 | 1.93 ± 0.15
35 | GUCUAU | 1.64 ± 0.045 | 1.78 ± 0.14
36 | GUGUAC | 1.58 ± 0.025 | 1.78 ± 0.089
37 | GAGCUU | 1.8 ± 0.045 | 1.9 ± 0.14
38 | CCACAA | 1.51 ± 0.032 | 1.7 ± 0.11
39 | CAACCG | 1.817 ± 0.009 | 1.88 ± 0.071
40 | GACCGU | 1.74 ± 0.066 | 1.86 ± 0.03
41 | AUUAGA | 1.52 ± 0.12 | 1.69 ± 0.058
42 | CUAGUA | 1.56 ± 0.046 | 1.7 ± 0.04
43 | ACGUUA | 1.49 ± 0.045 | 1.65 ± 0.13
44 | UCACCC | 1.83 ± 0.032 | 1.88 ± 0.096
45 | CUGUUU | 1.575 ± 0.0091 | 1.72 ± 0.12
46 | UAUGGA | 1.53 ± 0.017 | 1.73 ± 0.098
47 | AGUAGC | 1.618 ± 0.0046 | 1.8 ± 0.12
48 | GCUCAC | 1.69 ± 0.034 | 1.83 ± 0.12

Row | Variant | normalized RNA/DNA level without ligand (log10) [1] | normalized RNA/DNA level with ligand (log10) [2]
49 | GAUGAC | 1.65 ± 0.019 | 1.82 ± 0.12
50 | UGUUAC | 1.735 ± 0.0055 | 1.91 ± 0.14
51 | UGUUAU | 1.6763 ± 0.0012 | 1.84 ± 0.14
52 | GGCGCG | 1.72 ± 0.034 | 1.83 ± 0.19
53 | CUCGAG | 1.71 ± 0.034 | 1.86 ± 0.11
54 | UCGUCG | 1.74 ± 0.03 | 1.88 ± 0.085
55 | GAUAGU | 1.62 ± 0.045 | 1.78 ± 0.1
56 | UAGGUG | 1.58 ± 0.068 | 1.77 ± 0.093
57 | UAGCCU | 1.73 ± 0.03 | 1.86 ± 0.043
58 | CGCUCC | 1.77 ± 0.035 | 1.89 ± 0.084
59 | ACUGCG | 1.73 ± 0.069 | 1.83 ± 0.069
60 | UAUUUA | 1.707 ± 0.0067 | 1.84 ± 0.12
61 | AUCAUC | 1.8459 ± 0.00049 | 1.935 ± 0.0035
62 | GACGCU | 1.71 ± 0.043 | 1.81 ± 0.097
63 | UUAGCG | 1.79 ± 0.032 | 1.86 ± 0.11
64 | UUACGC | 1.739 ± 0.011 | 1.86 ± 0.1
65 | UGAAGC | 1.679 ± 0.0046 | 1.83 ± 0.14
66 | GGCUCA | 1.69 ± 0.021 | 1.88 ± 0.22
67 | GUGGGA | 1.53 ± 0.073 | 1.72 ± 0.07
68 | GACCCC | 1.8 ± 0.055 | 1.88 ± 0.14
69 | UGUUCC | 1.84 ± 0.052 | 1.94 ± 0.14
70 | CUUGAU | 1.66 ± 0.023 | 1.82 ± 0.13
71 | CGAUGG | 1.67 ± 0.07 | 1.81 ± 0.073
72 | AGCGUA | 1.55 ± 0.087 | 1.71 ± 0.1

Row | Variant | normalized RNA/DNA level without ligand (log10) [1] | normalized RNA/DNA level with ligand (log10) [2]
73 | GGCGGC | 1.71 ± 0.021 | 1.89 ± 0.13
74 | GCGCUU | 1.61 ± 0.043 | 1.78 ± 0.13
75 | ACUUGA | 1.49 ± 0.11 | 1.72 ± 0.13
76 | AUACGG | 1.58 ± 0.093 | 1.74 ± 0.056
77 | UCAUUC | 1.69 ± 0.051 | 1.85 ± 0.084
78 | ACUCUC | 1.77 ± 0.076 | 1.86 ± 0.12
79 | CGAGUU | 1.72 ± 0.08 | 1.84 ± 0.094
80 | GGUCGU | 1.66 ± 0.056 | 1.83 ± 0.036
81 | AAAACA | 1.51 ± 0.072 | 1.7 ± 0.074
82 | UACAGG | 1.65 ± 0.044 | 1.82 ± 0.081
83 | GAAACG | 1.61 ± 0.053 | 1.77 ± 0.069
84 | CCCUAA | 1.45 ± 0.081 | 1.64 ± 0.13
85 | UGCACA | 1.76 ± 0.05 | 1.89 ± 0.12
86 | GAACGG | 1.703 ± 0.0094 | 1.78 ± 0.082
87 | CAGGUG | 1.62 ± 0.056 | 1.76 ± 0.084
88 | CUCUGU | 1.78 ± 0.062 | 1.91 ± 0.06
89 | CAAUUC | 1.66 ± 0.019 | 1.82 ± 0.065
90 | GUGUCA | 1.75 ± 0.027 | 1.85 ± 0.11
91 | UCGACG | 1.73 ± 0.0042 | 1.87 ± 0.099
92 | AUAGUC | 1.675 ± 0.0068 | 1.83 ± 0.088
93 | AGACAU | 1.62 ± 0.027 | 1.79 ± 0.12
94 | CUUUCG | 1.8 ± 0.046 | 1.88 ± 0.05
95 | CGGUUU | 1.6584 ± 0.0015 | 1.75 ± 0.1
96 | UUCGGG | 1.774 ± 0.011 | 1.9 ± 0.13

Row | Variant | normalized RNA/DNA level without ligand (log10) [1] | normalized RNA/DNA level with ligand (log10) [2]
97 | GCAAGU | 1.39 ± 0.16 | 1.64 ± 0.082
98 | GUGACA | 1.665 ± 0.0036 | 1.79 ± 0.069
99 | GACGAG | 1.56 ± 0.091 | 1.71 ± 0.071
100 | CAGAGA | 1.41 ± 0.064 | 1.64 ± 0.13
101 | CAGAGU | 1.652 ± 0.0071 | 1.86 ± 0.11
102 | CGACCC | 1.753 ± 0.014 | 1.88 ± 0.1
103 | CGACCU | 1.54 ± 0.028 | 1.71 ± 0.09
104 | UCACAA | 1.547 ± 0.011 | 1.72 ± 0.087
105 | AGGCAC | 1.707 ± 0.011 | 1.84 ± 0.12
106 | GUCAGA | 1.56 ± 0.057 | 1.76 ± 0.076
107 | UCGUGU | 1.617 ± 0.0058 | 1.81 ± 0.1
108 | UCUUUG | 1.731 ± 0.0025 | 1.89 ± 0.069
109 | GUCUGG | 1.68 ± 0.036 | 1.86 ± 0.049
110 | CCGCGC | 1.74 ± 0.026 | 1.87 ± 0.098
111 | GAGUGA | 1.71 ± 0.033 | 1.79 ± 0.14
112 | UUUAUC | 1.74 ± 0.056 | 1.83 ± 0.12
113 | UUUAUU | 1.72 ± 0.084 | 1.88 ± 0.15
114 | ACACUC | 1.637 ± 0.0033 | 1.77 ± 0.11
115 | UCAUCC | 1.78 ± 0.027 | 1.9 ± 0.082
116 | UCAUCG | 1.79 ± 0.023 | 1.88 ± 0.086
